Measured values from article PMC7744049.

Molecular target: SARS-CoV RBD (residues 306-527 of the spike protein) (SARS-CoV) (UniProt P59594)

Substance: CR3022 IgG (antibody)
- pseudovirus neutralization assay (SARS-CoV spike on pseudovirus), IC50: 5.2 µg/mL
